The source of these data is patent US7108990B2, “Chemokine receptor” (ChemoCentryx, Inc., priority 1999, dated 2006).

Entries after “also recorded” stand apart in the source; their conditions may differ.

Assay [1] addresses T1, CCX CKR (Homo sapiens, UniProt Q9NPB9).
T1 construct: Full length CCX CKR expression constructs were made in pIRESpuro expression vector; expressed in transfected cells
T1 sequence (Q9NPB9 1-350): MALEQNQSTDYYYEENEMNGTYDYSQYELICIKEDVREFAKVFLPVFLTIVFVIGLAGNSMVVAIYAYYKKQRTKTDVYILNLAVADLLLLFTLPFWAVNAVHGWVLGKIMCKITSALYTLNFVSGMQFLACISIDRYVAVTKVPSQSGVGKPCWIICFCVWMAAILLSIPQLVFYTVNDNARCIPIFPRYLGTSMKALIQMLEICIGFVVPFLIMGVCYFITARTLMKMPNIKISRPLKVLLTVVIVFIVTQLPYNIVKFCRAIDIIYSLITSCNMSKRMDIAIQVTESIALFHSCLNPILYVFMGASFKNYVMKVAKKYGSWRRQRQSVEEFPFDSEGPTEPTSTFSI
Nature of the assay: Radioligand binding competition (DisplaceMax) to CCX CKR stable transfectants with Scatchard transformation. The text has this: In one embodiment, binding is detected as described by Dairaghi et al., 1997, J. Biol. Chem. 272:28206–209 (incorporated by reference in its entirety for all purposes) substituting CCX CKR transfectants for the CCR3 transfectants). In one embodiment, binding is detected using the filter based technique described by Dairaghi et al., 1999, J. Biol. Chem. 274:2156 (incorporated by reference in its entirety for all purposes), e.g., as shown in FIG. 4. Briefly, this technology employs expanded, efficiency-maximized radioligand binding utilizing filtration protocols. In these assays, 1×10^5 CCXCKR-293 HEK cells are incubated with ^125I-labeled ELC (MIP3beta) (final concentration of ˜0.05 nM) in the presence of unlabeled chemokine for 3 h at 4° C. in 25 mM HEPES, 140 mM NaCl, 1 mM CaCl2, 5 mM MgCl2, and 0.2% bovine serum albumin, adjusted to pH 7.1. Reactions were aspirated onto PEI-treated GF/B glass filters using a cell harvester (Packard). Filters are washed twice (25 mM HEPES, 500 mM NaCl, 1 mM CaCl2 5 mM MgCl2, adjusted to pH 7.1) and scintillant (e.g., MicroScint 20; 50 μl) is added to dried filters and counted (e.g., using a Packard Topcount scintillation counter). The competition dose-response curves is analyzed by standard methods to determine IC50 values (e.g., using GraphPad Prism software (San Diego, Calif.)). Additionally, a Scatchard transformation can be used to estimate the receptor sites per cell (e.g., using WaveMetrics Igor software (Lake Oswego, Oreg.)).
(§1) Binding analysis was carried out using efficiency-maximized radioligand binding utilizing filtration protocols designated “Displace Max” (Dairaghi et al., 1999, J. Biol. Chem. 274:21569). In these assays, DisplaceMax employed the simultaneous interrogation of CCX CKR transfectants by >80 distinct purified chemokines in the ability to displace radiolabeled ELC or TECK, using the protocol described (Dairaghi et al., 1999, J. Biol. Chem. 274:21569).
The binding interactions identified in the primary screen were examined quantitatively by extensive radioligand binding competition to CCX CKR stable transfectants and Scatchard transformation of the displacement data (FIG. 4B). […] In each case, the murine versions of these chemokines also bound, and with even greater affinity; the apparent Kd's are listed in FIG. 4B. […] In similar experiments, murine CTACK bound the receptor with a Kd of ˜9 nM (not shown). CTACK is also referred to as CCL27, ALP, ILC, and ESkine.

For assay [2], the target named is T1, CCX CKR. Nature of the assay: Preliminary chemotaxis analysis of CCX CKR transfectants. It counts as cell-based. The conditions noted are these: preliminary chemotaxis analyses.
Assay [3] concerns the target T1, CCX CKR. Nature of the assay: Homologous competition binding assay with radiolabeled chemokine on HEK293-CCX CKR cells. The conditions noted are these: HEK293-CCX CKR cells versus wildtype HEK293 cells. The text has this: Furthermore ELC-SK mediated adhesion was abolished in the presence of soluble native ELC as a competitor (FIG. 3A, top row). […] Moreover, radiolabeled ELC was used in a traditional homologous competition assay in the presence of increasing concentrations of unlabeled ELC. […] Taken together, the stalkokine-based adhesion and radiolabeled ligand binding/homologous competition assays indicate that CCX CKR is a new chemokine receptor that bound a novel compliment of chemokines.

Assay [4] concerns the target T1, CCX CKR. The assay is described as follows: Ligand induced internalization of Flag-CCX CKR in 293 cells (FACS). To be noted: 100 nM chemokine, 37° C., 15 or 45 minutes, 293 F-CCR10 cells. It counts as cell-based. The protocol:
293 cells transfected with the Flag-CCX CKR fusion plasmid (i.e., “293 F-CCR10 cells;” see Example 3) were incubated at 37° C. with varying concentrations of chemokines (ELC, SLC, TECK, murine CTACK and MCP-4) for 15 or 45 minutes. Following incubation, the cells were washed and fixed with 3% paraformaldehyde for 15 minutes on ice. The cells were stained with anti-Flag M1 antibody, followed by a PE-conjugated anti-mouse secondary antibody. FACS analysis were then carried out to determine surface expression of the receptor.
Results: A reduction in antibody binding in the presence of ligand is an indication of ligand-induced internalization of the receptor.

Assay [5] addresses T1, CCX CKR. The assay is described as follows: Adhesion of HEK293-CCX CKR cells to immobilized stalkokines and competition by soluble chemokines. It counts as cell-based. To be noted: soluble recombinant chemokine 5–10 ug/ml. An excerpt: “Stalkokine” technology was used to identify the chemokines bound by the CCX CKR. Briefly, immobilized native chemokines alone are incapable of capturing cells bearing cognate receptors (Imai et al., 1997, Cell 91:521). We have developed non-native chemokine structures, stalkokines, comprising chemokine moieties engineered as N-terminal attachments to extended modified mucins (Bazan et al., 1997, Nature 385:640). In one embodiment, stalkokines, harvested in the supernatants of HEK293 cells after transient transfection, are anchored to solid substrates via antibodies against carrier domains (e.g. poly-His epitopes) engineered to the carboxyl terminus, leaving the chemokine domain free to interact with candidate orphan receptors.
To determine ligand binding to CCX CKR, HEK293-CCX CKR cells were used to interrogate chemokine ‘stalkokines’ (SK), i.e., molecules in which discrete chemokine domains were engineered to be tethered to the end of an extended stalk structure. Stalkokines were interrogated using 8-well chamber slides coated first with anti-His anchoring antibody (10 ug/ml in PBS overnight at RT), which were washed and ‘blocked’ (2% FBS/0.5% BSA in PBS); treated with 250 ul of HEK293 cell stalkokine supernatants (1 hr at 37 C), and incubated with 500,000 HEK293-CCX CKR transfectants (1.5 hrs at RT). Inhibition of adhesion by competition with soluble chemokines was done by incubating cells with 5–10 ug/ml of recombinant chemokines. In all cases, nonadherent cells were removed by washing in PBS; remaining adherent cells were fixed with 1% glutaraldehyde, photoimaged and counted. As a primary screen this adhesion would reveal putative receptor-ligand interactions.

Assay [6] has as its target T1, CCX CKR. The assay is described as follows: Ligand binding fingerprint: cold chemokines competing against 125I-ELC on CCX CKR stable transfectants. The conditions noted are these: cold competitor at 200 nM; human and murine chemokines.
Excerpt: In order to rapidly and thoroughly define a given chemokine receptor's ligand binding fingerprint, we have established an approach to comprehensively profile chemokine receptors using a large array of purified chemokines and chemokine variants. We used this approach to confirm independently the interaction of ELC and other chemokines with CCX CKR. Employing radioligand binding of ^125-labeled-ELC or ^125-TECK to CCX CKR stable transfectants, chemokine specificity for the new receptor was determined.
as §1

ELC: EBI1 ligand chemokine, recombinant: the “affinity of binding to CCX CKR, in words” value in assay [1] was “high affinity”. Also, the “migration of CCX CKR transfectants in response to chemokine” value in assay [2] is “moderate migration”. For the same molecule, in assay [3], the “binding in homologous competition of radiolabeled with unlabeled chemokine” value is reported as “significant binding”. In assay [4], the “internalization of CCX CKR” value is given as “Internalization of the receptor was observed”. Besides, the “effect of soluble chemokine on ELC-SK mediated adhesion of HEK293-CCX CKR cells” value in assay [5] was “abolished; also recorded: ablation of adhesion”. Also, the “competition with 125I-labeled ELC binding to CCX CKR (fingerprint)” value in assay [6] is “bound well”.

B1: SLC: secondary lymphoid-tissue chemokine, recombinant (protein)
chain: SDGGAQDCCLKYSQRKIPAKVVRSYRKQEPSLGCSIPAILFLPRKRSQAELCADPKELWVQQLMQHLDKTPSPQKPAQGCRKDRGASKTGKKGKGSKGCKRTERSQTPKGP
B1: in assay [1], the “affinity of binding to CCX CKR, in words” value is listed as “high affinity”. The “migration of CCX CKR transfectants in response to chemokine” value in assay [2] is “moderate migration”. Besides, the “internalization of CCX CKR” value in assay [4] is “Internalization of the receptor was observed”. Also, in assay [5], the “effect of soluble chemokine on ELC-SK mediated adhesion of HEK293-CCX CKR cells” value is given as “significant reduction; also recorded: ablation of adhesion”. Besides, the “competition with 125I-labeled ELC binding to CCX CKR (fingerprint)” value in assay [6] is listed as “bound well”.
